Data published in the supplement of paper PMC10567573.

B1: PPFIA4 (parent)
chain: PGVHRRYSALREESAKDWETSPLP

Variants of: B1
Test: protein stability index of a GFP-peptide fusion (GPS, HEK-293T) (PSI 1-6); higher = more stable
Details: c terminus: a fixed tail appended
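Note: lentivirally expressed fusions sorted by FACS into six bins by GFP to DsRed ratio, PSI derived from sequencing read proportions per bin multiplied by bin number.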

Protein stability index, by site and new letter:
P22: K 4.23 | L 3.67 | E 4.94 | F 3.19 | Y 3.3 | I 3.48 | T 3.04 | D 4.63 | Q 4.63 | C 4.02 | V 3.68 | H 4.28 | A 4.11 | S 4.31 | R 3.18 | N 4.52
W18: V 4.67 | H 5.23 | N 5.29 | G 5.21 | P 5.21 | D 5.58 | R 4.42 | T 5.24 | E 5.15 | M 5.08 | Q 4.77 | K 4.7 | F 4.4 | A 4.95 | Y 4.73 | I 4.81 | L 4.96 | C 5.36
E19: A 2.97 | Q 4.18 | F 2.4 | P 3.59 | Y 2.37 | N 3.42 | C 3 | I 3.41 | V 3.24 | K 3.68 | S 3.17 | M 2.93 | H 3.41 | L 3.97 | R 3.55 | D 4.03 | T 3.96 | W 2.41
L23: Y 3.87 | N 5 | D 4.55 | I 4.26 | V 2.13 | Q 4.37 | S 4.56 | H 4.53 | E 3.3 | K 5.38 | A 4.67 | R 4.25 | M 4.79 | F 4.27
A15: H 4.39 | E 4.52 | F 3.52 | R 4 | K 4.59 | T 4.63 | M 2.77 | G 4.07 | Q 3.63 | N 3.92 | L 4.12 | C 3.63 | S 3.76 | Y 3.32 | V 3.89 | P 4.12 | D 4.92
